Results on 1 molecule are retold here after patent US20220177594A1 (ZOETIS SERVICES, published 2022).

Read-outs that look alike come from different tables or passages of the source.

The target of assay [1] is T1, canine OSMR on canine cells (canine, UniProt A0A8I3MI11 28-967).
T1 sequence: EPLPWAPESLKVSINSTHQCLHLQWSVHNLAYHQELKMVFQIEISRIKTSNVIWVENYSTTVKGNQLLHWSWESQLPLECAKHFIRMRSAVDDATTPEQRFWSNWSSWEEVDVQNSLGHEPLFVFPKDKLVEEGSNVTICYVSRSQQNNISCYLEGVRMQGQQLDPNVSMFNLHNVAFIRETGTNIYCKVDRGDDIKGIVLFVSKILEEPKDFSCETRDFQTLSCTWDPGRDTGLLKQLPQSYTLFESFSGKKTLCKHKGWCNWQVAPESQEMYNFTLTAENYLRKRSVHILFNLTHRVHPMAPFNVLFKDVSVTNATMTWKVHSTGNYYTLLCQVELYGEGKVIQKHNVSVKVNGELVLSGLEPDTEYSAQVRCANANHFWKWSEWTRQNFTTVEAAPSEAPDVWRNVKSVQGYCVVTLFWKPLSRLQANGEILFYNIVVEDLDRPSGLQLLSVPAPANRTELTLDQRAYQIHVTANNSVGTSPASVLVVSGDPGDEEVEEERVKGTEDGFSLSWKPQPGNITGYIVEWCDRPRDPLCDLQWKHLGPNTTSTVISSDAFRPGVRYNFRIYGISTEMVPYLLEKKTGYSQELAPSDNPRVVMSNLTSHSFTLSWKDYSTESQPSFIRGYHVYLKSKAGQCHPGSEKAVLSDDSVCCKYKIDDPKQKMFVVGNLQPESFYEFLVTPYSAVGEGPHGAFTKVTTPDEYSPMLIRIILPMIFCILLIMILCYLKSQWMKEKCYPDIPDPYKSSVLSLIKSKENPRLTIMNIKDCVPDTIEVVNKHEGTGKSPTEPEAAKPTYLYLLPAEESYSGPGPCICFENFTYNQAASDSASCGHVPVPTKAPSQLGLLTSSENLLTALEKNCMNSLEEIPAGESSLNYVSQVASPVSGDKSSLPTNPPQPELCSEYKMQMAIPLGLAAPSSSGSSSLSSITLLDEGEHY
Briefly: cell-based or functional assay.

In assay [2] the target is T2, feline OSMR on feline Fcwf-4 cells (feline, UniProt A0ABI8A843 28-960).
T2 sequence: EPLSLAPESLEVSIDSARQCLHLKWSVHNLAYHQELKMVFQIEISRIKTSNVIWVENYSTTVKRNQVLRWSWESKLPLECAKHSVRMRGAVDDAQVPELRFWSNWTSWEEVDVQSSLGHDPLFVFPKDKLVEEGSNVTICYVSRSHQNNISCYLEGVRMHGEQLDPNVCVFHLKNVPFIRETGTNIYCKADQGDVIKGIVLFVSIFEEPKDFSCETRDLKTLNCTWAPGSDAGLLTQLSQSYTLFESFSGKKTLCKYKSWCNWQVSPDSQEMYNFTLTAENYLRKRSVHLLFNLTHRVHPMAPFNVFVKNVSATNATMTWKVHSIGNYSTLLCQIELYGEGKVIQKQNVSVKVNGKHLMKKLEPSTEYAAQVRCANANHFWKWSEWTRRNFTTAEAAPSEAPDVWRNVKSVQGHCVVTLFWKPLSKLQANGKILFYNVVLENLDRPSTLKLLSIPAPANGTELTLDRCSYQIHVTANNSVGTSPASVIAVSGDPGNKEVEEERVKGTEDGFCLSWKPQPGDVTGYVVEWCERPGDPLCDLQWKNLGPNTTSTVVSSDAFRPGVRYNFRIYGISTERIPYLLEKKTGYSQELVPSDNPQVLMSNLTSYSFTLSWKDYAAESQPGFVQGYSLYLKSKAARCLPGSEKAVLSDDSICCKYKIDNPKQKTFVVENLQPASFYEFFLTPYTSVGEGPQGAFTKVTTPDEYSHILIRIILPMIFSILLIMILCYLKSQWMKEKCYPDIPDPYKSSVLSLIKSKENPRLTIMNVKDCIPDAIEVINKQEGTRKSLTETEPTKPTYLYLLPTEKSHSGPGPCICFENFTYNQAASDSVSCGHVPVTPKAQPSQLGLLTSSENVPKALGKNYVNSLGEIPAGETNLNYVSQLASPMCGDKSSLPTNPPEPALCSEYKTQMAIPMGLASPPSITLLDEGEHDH
Briefly: cell-based or functional assay.

The target of another assay is T3, Human_OSMR (human, UniProt Q99650 28-739).
T3 construct: Bought protein; also called hOSMR
T3 sequence: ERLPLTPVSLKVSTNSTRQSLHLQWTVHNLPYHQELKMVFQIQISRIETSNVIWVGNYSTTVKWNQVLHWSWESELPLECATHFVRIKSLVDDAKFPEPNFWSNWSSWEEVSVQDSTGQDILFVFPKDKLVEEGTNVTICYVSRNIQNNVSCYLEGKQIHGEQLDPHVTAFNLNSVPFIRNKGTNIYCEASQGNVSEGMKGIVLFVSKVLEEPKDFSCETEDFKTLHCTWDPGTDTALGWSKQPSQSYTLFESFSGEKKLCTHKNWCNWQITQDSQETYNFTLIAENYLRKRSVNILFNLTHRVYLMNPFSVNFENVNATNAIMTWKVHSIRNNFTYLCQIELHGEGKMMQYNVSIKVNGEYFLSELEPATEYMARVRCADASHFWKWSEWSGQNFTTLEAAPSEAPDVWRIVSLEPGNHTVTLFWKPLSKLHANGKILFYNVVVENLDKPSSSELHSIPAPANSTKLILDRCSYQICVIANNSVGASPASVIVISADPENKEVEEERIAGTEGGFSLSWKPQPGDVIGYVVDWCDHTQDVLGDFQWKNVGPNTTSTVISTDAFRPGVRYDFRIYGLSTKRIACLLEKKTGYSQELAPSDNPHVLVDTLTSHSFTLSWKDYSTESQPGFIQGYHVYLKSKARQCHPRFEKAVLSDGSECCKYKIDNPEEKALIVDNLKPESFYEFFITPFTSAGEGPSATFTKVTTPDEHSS
Briefly: SPR Biacore, OSMR on chip. Here is the method: The affinity with which candidate mAbs bind canine, feline, and human (SEQ ID NO: 122; Human_OSMR) (R&D Systems, Minneapolis, Minn.) OSMR was determined using surface plasmon resonance (SPR) on a Biacore system (Biacore Life Sciences (GE Healthcare), Uppsala, Sweden). To avoid affinity differences associated with differential surface preparation that can occur when immobilizing antibodies to surfaces; OSMR from each species was directly conjugated to individual surfaces. Immobilization was obtained by amine coupling 5 μg/mL OSMR using N-hydroxysuccinimide (NHS)/1-Ethyl-3-(3-dimethylaminopropyl) carbodiimide (EDC) chemistry. Chips were quenched with ethanolamine and the affinity with which all candidate mAbs bound to the immobilized OSMR was evaluated. All curves were fit to a 1:1 model. […] Results for affinity measurements are described herein.

Assay [3] deals with T1, canine OSMR on canine cells. Briefly: cell-based or functional assay. The source holds these as a separate data set.
Assay [4] has as its target T2, feline OSMR on feline Fcwf-4 cells. The assay can be described thus: cell-based or functional assay. The source holds these as a separate data set.
Assay [5] deals with T4, ANTIBODY EXPRESSION CONTROL.
T4 construct: also called mouse anti-canine antibody (capture reagent of the expression control ELISA)
Briefly: SPR Biacore, expression control. A digest of the protocol: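 Surface plasmon resonance with OSMR amine-coupled at 5 μg/mL via NHS/EDC, ethanolamine-quenched, and candidate mAbs flowed over as analyte. ka, kd and KD derived from 1:1 model fits.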

B1: mouse: canine 10F07 chimera (antibody, V domains shown)
VH: DVKLVESGEGLVKPGGSLKLSCAASGFTFSSYAMSWVRQTPEKRLEWVTYISSGGDYFYYADTVKGRFTISRDNARNTLYLQMSSLKSEDTAMYYCTRDPITGTFAYWGQGTLVTVSA
VL: DIQMTQTTSSLSASLGDRVTISCRASQDITNYLNWYQQKPDGTVKLLIYYTSTLHSGVPSRFSGSGSGTDFSLTISNLEQEDIATYFCQQGHMLPWTFGGGTKLEIKR
notes: Mouse variable domains on canine IgG constant regions; also called 10F07 (Mouse:Canine); mouse:dog chimera 10F07
On to B1, for which, in assay [1], the “IC50, inhibition of canine IL-31 pSTAT3 signaling, canine DH82 cells” value is 0.03 µg/ml and the “IC50, inhibition of canine OSM pSTAT3 signaling, canine DH82 cells” value came to 0.2 µg/ml. In addition, in assay [2], the “IC50, inhibition of canine OSM pSTAT3 signaling, feline Fcwf-4 cells” value is 0.28 µg/ml and the “IC50, inhibition of feline IL-31 pSTAT3 signaling, feline Fcwf-4 cells” value came out at 0.05 µg/ml. In the assay with Human_OSMR, the binding result was “no binding”. Also, in assay [3], the “IC50, inhibition of canine IL-31 pSTAT3 signaling, canine DH82 cells” value turned out to be 0.05 µg/ml and the “IC50, inhibition of canine OSM pSTAT3 signaling, canine DH82 cells” value amounted to 0.16 µg/ml. The “IC50, inhibition of feline IL-31 pSTAT3 signaling, feline Fcwf-4 cells” value in assay [4] amounted to 0.32 µg/ml. For the same molecule, in assay [5], the Kd amounted to 0.617 nM, the koff stood at 8.27e-05 s⁻¹ and the kon is 134000 M⁻¹ s⁻¹.
